Experimental data from paper PMC4741384 (2016).

B1: full-length mCherry-lacR-MDC1 [human] / FN-TNKS1 (flag tag and NLS signal, pCDNA 3.1) [human] (parent complex)
chain 1: MEDTQAIDWDVEEEEETEQSSESLRCNVEPVGRLHIFSGAHGPEKDFPLHLGKNVVGRMPDCSVALPFPSISKQHAEIEILAWDKAPILRDCGSLNGTQILRPPKVLSPGVSHRLRDQELILFADLLCQYHRLDVSLPFVSRGPLTVEETPRVQGETQPQRLLLAEDSEEEVDFLSERRMVKKSRTTSSSVIVPESDEEGHSPVLGGLGPPFAFNLNSDTDVEEGQQPATEEASSAARRGATVEAKQSEAEVVTEIQLEKDQPLVKERDNDTKVKRGAGNGVVPAGVILERSQPPGEDSDTDVDDDSRPPGRPAEVHLERAQPFGFIDSDTDAEEERIPATPVVIPMKKRKIFHGVGTRGPGAPGLAHLQESQAGSDTDVEEGKAPQAVPLEKSQASMVINSDTDDEEEVSAALTLAHLKESQPAIWNRDAEEDMPQRVVLLQRSQTTTERDSDTDVEEEELPVENREAVLKDHTKIRALVRAHSEKDQPPFGDSDDSVEADKSSPGIHLERSQASTTVDINTQVEKEVPPGSAIIHIKKHQVSVEGTNQTDVKAVGGPAKLLVVSLEEAWPLHGDCETDAEEGTSLTASVVADVRKSQLPAEGDAGAEWAAAVLKQERAHEVGAQGGPPVAQVEQDLPISRENLTDLVVDTDTLGESTQPQREGAQVPTGREREQHVGGTKDSEDNYGDSEDLDLQATQCFLENQGLEAVQSMEDEPTQAFMLTPPQELGPSHCSFQTTGTLDEPWEVLATQPFCLRESEDSETQPFDTHLEAYGPCLSPPRAIPGDQHPESPVHTEPMGIQGRGRQTVDKVMGIPKETAERVGPERGPLERETEKLLPERQTDVTGEEELTKGKQDREQKQLLARDTQRQESDKNGESASPERDRESLKVEIETSEEIQEKQVQKQTLPSKAFEREVERPVANRECDPAELEEKVPKVILERDTQRGEPEGGSQDQKGQASSPTPEPGVGAGDLPGPTSAPVPSGSQSGGRGSPVSPRRHQKGLLNCKMPPAEKASRIRAAEKVSRGDQESPDACLPPTVPEAPAPPQKPLNSQSQKHLAPPPLLSPLLPSIKPTVRKTRQDGSQEAPEAPLSSELEPFHPKPKIRTRKSSRMTPFPATSAAPEPHPSTSTAQPVTPKPTSQATRSRTNRSSVKTPEPVVPTAPELQPSTSTDQPVTSEPTSQVTRGRKSRSSVKTPETVVPTALELQPSTSTDRPVTSEPTSQATRGRKNRSSVKTPEPVVPTAPELQPSTSTDQPVTSEPTYQATRGRKNRSSVKTPEPVVPTAPELRPSTSTDRPVTPKPTSRTTRSRTNMSSVKTPETVVPTAPELQISTSTDQPVTPKPTSRTTRSRTNMSSVKNPESTVPIAPELPPSTSTEQPVTPEPTSRATRGRKNRSSGKTPETLVPTAPKLEPSTSTDQPVTPEPTSQATRGRTNRSSVKTPETVVPTAPELQPSTSTDQPVTPEPTSQATRGRTDRSSVKTPETVVPTAPELQASASTDQPVTSEPTSRTTRGRKNRSSVKTPETVVPAAPELQPSTSTDQPVTPEPTSRATRGRTNRSSVKTPESIVPIAPELQPSTSRNQLVTPEPTSRATRCRTNRSSVKTPEPVVPTAPEPHPTTSTDQPVTPKLTSRATRRKTNRSSVKTPKPVEPAASDLEPFTPTDQSVTPEAIAQGGQSKTLRSSTVRAMPVPTTPEFQSPVTTDQPISPEPITQPSCIKRQRAAGNPGSLAAPIDHKPCSAPLEPKSQASRNQRWGAVRAAESLTAIPEPASPQLLETPIHASQIQKVEPAGRSRFTPELQPKASQSRKRSLATMDSPPHQKQPQRGEVSQKTVIIKEEEEDTAEKPGKEEDVVTPKPGKRKRDQAEEEPNRIPSRSLRRTKLNQESTAPKVLFTGVVDARGERAVLALGGSLAGSAAEASHLVTDRIRRTVKFLCALGRGIPILSLDWLHQSRKAGFFLPPDEYVVTDPEQEKNFGFSLQDALSRARERRLLEGYEIYVTPGVQPPPPQMGEIISCCGGTYLPSMPRSYKPQRVVITCPQDFPHCSIPLRVGLPLLSPEFLLTGVLKQEAKPEAFVLSPLEMSST
chain 2: MAASRRSQHHHHHHQQQLQPAPGASAPPPPPPPPLSPGLAPGTTPASPTASGLAPFASPRHGLALPEGDGSRDPPDRPRSPDPVDGTSCCSTTSTICTVAAAPVVPAVSTSSAAGVAPNPAGSGSNNSPSSSSSPTSSSSSSPSSPGSSLAESPEAAGVSSTAPLGPGAAGPGTGVPAVSGALRELLEACRNGDVSRVKRLVDAANVNAKDMAGRKSSPLHFAAGFGRKDVVEHLLQMGANVHARDDGGLIPLHNACSFGHAEVVSLLLCQGADPNARDNWNYTPLHEAAIKGKIDVCIVLLQHGADPNIRNTDGKSALDLADPSAKAVLTGEYKKDELLEAARSGNEEKLMALLTPLNVNCHASDGRKSTPLHLAAGYNRVRIVQLLLQHGADVHAKDKGGLVPLHNACSYGHYEVTELLLKHGACVNAMDLWQFTPLHEAASKNRVEVCSLLLSHGADPTLVNCHGKSAVDMAPTPELRERLTYEFKGHSLLQAAREADLAKVKKTLALEIINFKQPQSHETALHCAVASLHPKRKQVTELLLRKGANVNEKNKDFMTPLHVAAERAHNDVMEVLHKHGAKMNALDTLGQTALHRAALAGHLQTCRLLLSYGSDPSIISLQGFTAAQMGNEAVQQILSESTPIRTSDVDYRLLEASKAGDLETVKQLCSSQNVNCRDLEGRHSTPLHFAAGYNRVSVVEYLLHHGADVHAKDKGGLVPLHNACSYGHYEVAELLVRHGASVNVADLWKFTPLHEAAAKGKYEICKLLLKHGADPTKKNRDGNTPLDLVKEGDTDIQDLLRGDAALLDAAKKGCLARVQKLCTPENINCRDTQGRNSTPLHLAAGYNNLEVAEYLLEHGADVNAQDKGGLIPLHNAASYGHVDIAALLIKYNTCVNATDKWAFTPLHEAAQKGRTQLCALLLAHGADPTMKNQEGQTPLDLATADDIRALLIDAMPPEALPTCFKPQATVVSASLISPASTPSCLSAASSIDNLTGPLAELAVGGASNAGDGAAGTERKEGEVAGLDMNISQFLKSLGLEHLRDIFETEQITLDVLADMGHEELKEIGINAYGHRHKLIKGVERLLGGQQGTNPYLTFHCVNQGTILLDLAPEDKEYQSVEEEMQSTIREHRDGGNAGGIFNRYNVIRIQKVVNKKLRERFCHRQKEVSEENHNHHNERMLFHGSPFINAIIHKGFDERHAYIGGMFGAGIYFAENSSKSNQYVYGIGGGTGCPTHKDRSCYICHRQMLFCRVTLGKSFLQFSTMKMAHAPPGHHSVIGRPSVNGLAYAEYVIYRGEQAYPEYLITYQIMKPEAPSQTATAAEQKT

Variants of: B1
Assay: lacO-array tethering colocalization (immunofluorescence) in U2OS17 cells; N = 100 cells in each experiment, three independent experiments; read off a plot

First: chain 1 P951A, chain 1 E952A, chain 1 G953A
Second: chain 1 P951A, chain 1 E952A, chain 1 G953A, chain 1 L1996A, chain 1 E1997A, chain 1 G1998A
The screen value of the first is higher: ~30% for the first, ~3.7% for the second.

For chain 1 L1996A, chain 1 E1997A, chain 1 G1998A, the screen value was ~27%.
